Reference: patent publication US20040018971A1 (published 2004)
Where no end group is shown, it is not given here. [ ]: non-standard residue; d: D form. Abu = CC[C@H](N)C(=O)O

Assays:
[1] = molecular target: T1, HLA-A*0201 (human); assay: competitive inhibition of 125I-labelled standard peptide binding to purified HLA, gel filtration
T1 construct: also called HLA-A2.1

[2] = molecular target: HLA-A*0301 (human); assay: inhibition of 125I probe peptide binding to purified HLA
[3] = molecular target: HLA-A*1101 (human); assay: as above
[4] = molecular target: HLA-A*3101 (human); assay: as above
[5] = molecular target: HLA-A*3301 (human); assay: as above
[6] = molecular target: HLA-A*6801 (human); assay: as above
[7] = molecular target: T2, HLA-A*0201 (human); assay: competition with 125I-labelled standard peptide for purified HLA-A*0201, gel filtration; ratio to the standard peptide
T2 construct: Purified HLA class I molecule; also called HLA-A2.1

[8] = molecular target: HLA-B*0702 (human); assay: competition vs 125I-labelled probe peptide, purified HLA, gel filtration
[9] = molecular target: HLA-B*5101 (human); assay: as above
[10] = molecular target: HLA-B*5301 (human); assay: as above
[11] = molecular target: HLA-B*5401 (human); assay: as above
[12] = molecular target: HLA-B*3501 (human); assay: competition with 125I probe peptide, purified HLA
[13] = molecular target: HLA-B*5101 (human); assay: competition with 125I probe peptide, purified HLA
[14] = molecular target: HLA-B*5301 (human); assay: competition with 125I probe peptide, purified HLA
[15] = molecular target: HLA-B*0702 (human); assay: competition with 125I probe peptide, purified HLA

Binder | IC50 [2] [µM] | IC50 [4] [µM] | IC50 [5] [µM] | relative binding ratio (IC50 of standard peptide / IC50 of test peptide) [7] [ratio] | further results
NASLSFLQDI (Synthetic peptide) [HER2/neu A02 supermotif peptide, position 68, 10 amino acids] |  |  |  |  | relative binding ratio (IC50 of standard peptide / IC50 of test peptide) [1]: 0.0001 ratio
CVNCSQFLR (synthetic peptide) [Her2/neu.528] | 7.33 | 0.034 | 0.05 |  | IC50 [3]: 0.194 µM; IC50 [6]: 0.018 µM
GAFGTVYKGI (Synthetic peptide) [HER2/neu peptide, position 729, 10 amino acids] |  |  |  | 0.0001 | 
LVCPLHNQEV (Synthetic peptide) [HER2/neu A02 supermotif peptide, position 313, 10 amino acids] |  |  |  |  | relative binding ratio (IC50 of standard peptide / IC50 of test peptide) [1]: 0.0002 ratio
LVSEFSRM (Synthetic peptide) [HER2/neu A02 supermotif peptide, position 972, 8 amino acids] |  |  |  |  | relative binding ratio (IC50 of standard peptide / IC50 of test peptide) [1]: 0.0001 ratio
ELAALCRWGL (Synthetic peptide) [HER2/neu peptide, position 2, 10 amino acids] |  |  |  | 0.0001 | 
HVVPWDQLFR (synthetic analog peptide) [Her2/neu.478.V2] | 7.33 | 0.391 | 0.193 |  | IC50 [3]: 1.33 µM; IC50 [6]: 0.0036 µM
HTVPWDQLFR (synthetic peptide) [Her2/neu.478] | 3.14 | 0.019 | 0.088 |  | IC50 [3]: 0.083 µM; IC50 [6]: 0.004 µM
GAAKGLQSL (Synthetic peptide) [HER2/neu peptide, position 1093, 9 amino acids] |  |  |  | 0.0001 | 
ELVSEFSRMA (Synthetic peptide) [HER2/neu peptide, position 971, 10 amino acids] |  |  |  | 0.0001 | 
LVDAEEYLV (Synthetic peptide) [HER2/neu A02 supermotif peptide, position 1017, 9 amino acids] |  |  |  |  | relative binding ratio (IC50 of standard peptide / IC50 of test peptide) [1]: 0.003 ratio
EILKGGVLI (Synthetic peptide) [HER2/neu peptide, position 147, 9 amino acids] |  |  |  | 0.0001 | 
IVWLGLRSLR (synthetic analog peptide) [Her2/neu.450.V2] | 0.234 | 0.011 | 0.193 |  | IC50 [3]: 1.94 µM; IC50 [6]: 0.0073 µM
ISWLGLRSLR (synthetic peptide) [Her2/neu.450] | 0.268 | 0.0069 | 0.223 |  | IC50 [6]: 0.073 µM
FPAARPAGI (9-mer analog of the HER2/neu peptide starting at position 1157) [Her2/neu.1157.F1I9] |  |  |  |  | IC50 [8]: 0.0093 µM; IC50 [9]: 0.131 µM; IC50 [10]: 4.23 µM; IC50 [11]: 0.048 µM
DLLNWCMQI (Synthetic peptide) [HER2/neu peptide, position 821, 9 amino acids] |  |  |  | 0.0002 | 
[Abu]VN[Abu]SQFLR (synthetic analog peptide; also called BVNBSQFLR) [Her2/neu.528.B1B4] | 0.177 | 0.038 | 0.058 |  | IC50 [3]: 0.08 µM; IC50 [6]: 0.01 µM
BVNBSQFLK (B at positions 1 and 4 = alpha-amino butyric acid (in place of cysteine), synthetic analog peptide; also called BVNBSQFLK) [Her2/neu.528.B1B4K9] | 0.034 | 0.06 | 4.26 |  | IC50 [3]: 0.022 µM; IC50 [6]: 0.015 µM
TVLWKDIFHR (synthetic analog peptide) [Her2/neu.166.V2R10] | 8.46 | 0.6 | 0.076 |  | IC50 [3]: 0.286 µM; IC50 [6]: 0.042 µM
ELGSGLALI (Synthetic peptide) [HER2/neu peptide, position 460, 9 amino acids] |  |  |  | 0.0004 | 
TV[Abu]AGG[Abu]AR (synthetic analog peptide; also called TVBAGGBAR) [Her2/neu.218.B3B7] | 0.314 | 0.247 | 0.242 |  | IC50 [3]: 0.111 µM; IC50 [6]: 0.008 µM
DLVDAEEYLV (Synthetic peptide) [HER2/neu peptide, position 1016, 10 amino acids] |  |  |  | 0.0002 | 
LPTNASLSF (native HER2/neu peptide from position 65) [Her2/neu.65 (9-mer)] |  |  |  |  | IC50 [12]: 0.114 µM; IC50 [13]: 0.809 µM; IC50 [14]: 0.034 µM
FPTNASLSFL (analog peptide) [Her2/neu.65.F1 (10-mer)] |  |  |  |  | IC50 [15]: 0.018 µM; IC50 [12]: 0.2 µM; IC50 [13]: 0.262 µM; IC50 [14]: 0.172 µM
GAMPNQAQM (T0001 prints N at position 706) [HER2/neu peptide, position 704, 9 amino acids] |  |  |  | 0.0002 | 

Binder | IC50 [2] [µM] | IC50 [4] [µM] | IC50 [5] [µM] | relative binding ratio (IC50 of standard peptide / IC50 of test peptide) [7] [ratio] | further results
FVVIQNEDL (Synthetic peptide) [HER2/neu peptide, position 986, 9 amino acids] |  |  |  | 0.0002 | 
FPSPREGPLPI (11-mer analog of the HER2/neu peptide starting at position 1149) [Her2/neu.1149.F1I11] |  |  |  |  | IC50 [8]: 0.19 µM; IC50 [9]: 0.262 µM; IC50 [10]: 5.17 µM; IC50 [11]: 0.263 µM
NLQVIRGRIL (Synthetic peptide) [HER2/neu A02 supermotif peptide, position 427, 10 amino acids] |  |  |  |  | relative binding ratio (IC50 of standard peptide / IC50 of test peptide) [1]: 0.0001 ratio
DVRLVHRDL (Synthetic peptide) [HER2/neu peptide, position 838, 9 amino acids] |  |  |  | 0.0002 | 
ILKGGVLIQR (synthetic peptide) [Her2/neu.148] | 0.275 | 0.025 | 0.121 |  | 
IVKGGVLIQK (synthetic analog peptide) [Her2/neu.148.V2K10] | 0.026 | 0.45 | 6.59 |  | IC50 [3]: 0.102 µM; IC50 [6]: 0.027 µM
CPSGVKPDLSY (native HER2/neu peptide from position 600) [Her2/neu.600] |  |  |  |  | IC50 [15]: 0.183 µM; IC50 [12]: 3.6 µM
FPSGVKPDLSI (analog peptide) [Her2/neu.600.F1I11] |  |  |  |  | IC50 [15]: 0.196 µM; IC50 [12]: 3.27 µM
TILWKDIFHK (synthetic peptide) [Her2/neu.166] | 0.256 | 0.487 | 0.69 |  | IC50 [3]: 0.0017 µM; IC50 [6]: 0.2 µM
MARDPQRFV (Synthetic peptide) [HER2/neu A02 supermotif peptide, position 979, 9 amino acids] |  |  |  |  | relative binding ratio (IC50 of standard peptide / IC50 of test peptide) [1]: 0.0001 ratio
DVWSYGVTV (Synthetic peptide) [HER2/neu peptide, position 904, 9 amino acids] |  |  |  | 0.0002 | 
FPREGPLPI (9-mer analog of the HER2/neu peptide starting at position 1151) [Her2/neu.1151.F1I9] |  |  |  |  | IC50 [8]: 0.0003 µM; IC50 [9]: 0.014 µM; IC50 [10]: 2.82 µM; IC50 [11]: 0.004 µM
MAGVGSPYV (Synthetic peptide) [HER2/neu A02 supermotif peptide, position 774, 9 amino acids] |  |  |  |  | relative binding ratio (IC50 of standard peptide / IC50 of test peptide) [1]: 0.0014 ratio
IVWKDIFHK (synthetic analog peptide) [Her2/neu.167.V2] | 0.023 | 0.247 | 0.853 |  | IC50 [3]: 0.04 µM
IVWKDIFHR (synthetic analog peptide) [Her2/neu.167.V2R9] | 0.143 | 0.006 | 0.016 |  | IC50 [3]: 0.286 µM; IC50 [6]: 0.015 µM
ILWKDIFHK (synthetic peptide) [Her2/neu.167] | 0.039 | 0.082 | 0.967 |  | IC50 [3]: 0.019 µM; IC50 [6]: 1.74 µM
MIMVKCWMI (Synthetic peptide) [HER2/neu A02 supermotif peptide, position 953, 9 amino acids] |  |  |  |  | relative binding ratio (IC50 of standard peptide / IC50 of test peptide) [1]: 0.0051 ratio
DLSVFQNLQV [HER2/neu peptide, position 421, 10 amino acids] |  |  |  | 0.0003 | 
QLRSLTEILK (synthetic peptide) [Her2/neu.141] | 0.055 | 0.667 | 6.17 |  | 
FVHTVPWDQL (Synthetic peptide) [HER2/neu peptide, position 476, 10 amino acids] |  |  |  | 0.0001 | 
DLVDAEEYL (Synthetic peptide) [HER2/neu peptide, position 1016, 9 amino acids] |  |  |  | 0.0002 | 
LVSEFSRMA (Synthetic peptide) [HER2/neu A02 supermotif peptide, position 972, 9 amino acids] |  |  |  |  | relative binding ratio (IC50 of standard peptide / IC50 of test peptide) [1]: 0.0001 ratio
FPASPLDSTI (10-mer analog of the HER2/neu peptide starting at position 995) [Her2/neu.995.F1I10] |  |  |  |  | IC50 [8]: 0.02 µM; IC50 [9]: 0.02 µM; IC50 [10]: 0.03 µM; IC50 [11]: 0.014 µM
DVFAFGGAV (Synthetic peptide) [HER2/neu peptide, position 1183, 9 amino acids] |  |  |  | 0.0002 | 
